Test results from US20250066460A1.

Target: complement C1s (UniProt P09871)
Assay: cell-based or functional assay

Sequence of UniProt P09871 (P09871 16-688 limits assumed): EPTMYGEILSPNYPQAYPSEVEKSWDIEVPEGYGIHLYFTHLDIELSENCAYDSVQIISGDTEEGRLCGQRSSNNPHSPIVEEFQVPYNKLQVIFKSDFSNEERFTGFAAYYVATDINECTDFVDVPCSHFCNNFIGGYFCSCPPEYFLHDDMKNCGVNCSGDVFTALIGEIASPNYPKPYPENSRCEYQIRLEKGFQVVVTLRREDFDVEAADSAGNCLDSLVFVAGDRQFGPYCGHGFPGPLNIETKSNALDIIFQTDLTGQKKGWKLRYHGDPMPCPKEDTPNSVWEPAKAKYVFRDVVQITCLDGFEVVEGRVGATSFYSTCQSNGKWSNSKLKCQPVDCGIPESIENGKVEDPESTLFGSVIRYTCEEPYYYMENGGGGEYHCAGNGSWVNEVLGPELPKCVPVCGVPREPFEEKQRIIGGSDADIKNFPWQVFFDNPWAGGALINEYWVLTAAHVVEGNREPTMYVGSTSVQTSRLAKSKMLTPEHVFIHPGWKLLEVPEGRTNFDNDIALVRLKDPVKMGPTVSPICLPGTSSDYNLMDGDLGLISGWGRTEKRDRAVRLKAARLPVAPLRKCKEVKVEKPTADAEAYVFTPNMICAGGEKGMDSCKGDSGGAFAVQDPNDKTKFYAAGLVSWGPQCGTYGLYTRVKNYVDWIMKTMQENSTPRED

- concentration blocking C3 fixation on sNF02.2 Schwann cells opsonized with MMN-patient serum (flow cytometry): 53 µg/mL
- lowest concentration blocking C3 deposition on fixed iPSC-derived motor neurons (titration 3-200 µg/mL): 12 µg/mL
Substance: TNT009 (antibody)
